From PMC6298963
Values joined by “and” are separate entries in the source; they are usually repeats but may differ in a detail not shown here. Identical values can stand only once. Like-named read-outs stand apart in the source and are kept apart here.

Columns and labels:
[1] = target: full length human APOBEC3G (human) (UniProt Q9HC16); experiment: atomic force microscopy (protein volume analysis); 80 nM A3G with 4 nM hybrid DNA; 50 mM HEPES pH 7.5, 100 mM NaCl, 5 mM MgCl2, 1 mM DTT, 37 °C 30 min; on APS-mica, tapping mode in air; stoichiometry of A3G on the DNA from volume
[2] = target: full length human APOBEC3G (human) (UniProt Q9HC16); experiment: atomic force microscopy (protein volume analysis); 32 nM A3G with 4 nM hybrid DNA; 50 mM HEPES pH 7.5, 100 mM NaCl, 5 mM MgCl2, 1 mM DTT, 37 °C 30 min; on APS-mica, tapping mode in air; stoichiometry of A3G on the DNA from volume; fractions from areas under the Gaussians
[3] = target: full length human APOBEC3G (human) (UniProt Q9HC16); experiment: atomic force microscopy (protein volume analysis); 80 nM A3G with 4 nM hybrid DNA; 50 mM HEPES pH 7.5, 100 mM NaCl, 5 mM MgCl2, 1 mM DTT, 37 °C 30 min; on APS-mica, tapping mode in air; stoichiometry of A3G on the DNA from volume; remark: listed apart in the source
[4] = target: full length human APOBEC3G (human) (UniProt Q9HC16); experiment: atomic force microscopy (protein volume analysis); 16 nM A3G with 4 nM hybrid DNA; 50 mM HEPES pH 7.5, 100 mM NaCl, 5 mM MgCl2, 1 mM DTT, 37 °C 30 min; on APS-mica, tapping mode in air; stoichiometry of A3G on the DNA from volume

- percent of A3G-DNA complexes with A3G trimers [1]: 82%
- percent of A3G-DNA complexes with higher order A3G oligomers [1]: 18%
- stoichiometry N [1]: 6
- percent of A3G-DNA complexes with A3G dimers [2]: 78%
- percent of A3G-DNA complexes with A3G tetramers [2]: 22%
- stoichiometry N [2]: 2 and 4
- percent of A3G-DNA complexes with A3G trimers [3]: 88%
- percent of A3G-DNA complexes with higher order A3G oligomers [3]: 12%
- stoichiometry N [3]: 3
- stoichiometry N [4]: 2 and 3
Substance: full length human APOBEC3G (from UniProt Q9HC16 1-384) (enzyme)
